The values that follow come from the nanobody polyreactivity screen of Harvey et al. (2022).

The series is described as follows: yeast display, Sf9 membrane polyspecificity reagent, FACS + sequencing; frameworks hold sequencing errors. A digest of the protocol:
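Sorting gates, low and high (top ~1%), were placed on anti-HA fluorescence to track expression and on streptavidin fluorescence to track reagent binding. A clone's polyreactivity label is taken from the gate it came out of. The reagent was 10% biotinylated, detergent-solubilized Sf9 membrane, applied for 1 hour at 4 °C to galactose-induced yeast display cells.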
“QVQLVESGGGLVQAGGSLRLSCAASGRFFVPYFIGSYRQAPGTERELVASISDSDTSTYYADSVKGRFTISRDNAKNTVYLQMNSLKPEDTAVYYCNVDYWGQGTQVTLSS”: the “polyreactivity (PSR sort gate)” value is recorded as “low polyreactivity”.

As for “QVQLVESGGGLVQAGGSLRLSCAASGRIFADYAMGWNRHAPGKQRELVAAITWSGDRTYYADSVKGRFTISRDNAKNTVYLQMNSLKPEDTAVYYCAARARLRRYNYWGQGTQVTVSS”, the “polyreactivity (PSR sort gate)” value is reported as “high polyreactivity”.

Take “QVQLVESGGGLVQAGGSLRLSCAASGRIFAFNVMGWYRQAPGKEREMVAAISTRDGSTYYADSVKGRFTISRDNAKNTVYLQMNSLIPEDTAVYYCNAVVRYYDWGYWDYDYWGQGTQVTVSS”: the “polyreactivity (PSR sort gate)” value was “low polyreactivity”.

As for “QVQLVESGGGLVQAGGSLRLSCAASGRIFAFYAMGWSRPAPGKERELVAAITSGGSTKYADSVKGRFTISRDNAKNTVYLQMNSLKPEDTAVYYCAAQYRYQRYSYAMEYWGQCTQVTVSS”, the “polyreactivity (PSR sort gate)” value is recorded as “high polyreactivity”.

As for “QVQLVESGGGLVQAGGSLRLSCAASGRIFAFYAMGWYRQAPGKERELVAAITWSGGSTYYADSVKGRFTISRDNAKNTVYLQMNSLKPEDTAVYYCAARYRHYFVRGGYWGQGTQVTVSS”, the “polyreactivity (PSR sort gate)” value is recorded as “high polyreactivity”.

Take “QVQLVESGGGLVQAGGSLRLSCAASGRIFAFYARGWYRQAPGKERELVAAITSGGSTKYADSVKGRFTISRDNAKNTVYLQMNSLKPEDTAVYYCAAQYRYQRYSYAMEYWGQGTQVTVSS”: the “polyreactivity (PSR sort gate)” value is “high polyreactivity”.

For “QVQLVESGGGLVQAGGSLRLSCAASGRIFAGYAMGWYRQAPGKERELVAAISNARRTNYADSVKGRFTISRDNAKNNVYLHMNSLKPEDTAVYYCAASRYGRKFSLYDYYYWGQGTQVTVSS”, the “polyreactivity (PSR sort gate)” value is recorded as “high polyreactivity”.

With “QVQLVESGGGLVQAGGSLRLSCAASGRIFAGYAMGWYRQAPGKERELVAAITTGGSTHYADSVKGRFTISRDNAKNTVYLQMNSLKPEDTAVYYCNAKVEFWESWGWLLDDDYWGQGTQVTVSS”, the “polyreactivity (PSR sort gate)” value is reported as “low polyreactivity”.

For “QVQLVESGGGLVQAGGSLRLSCAASGRIFAHYTMGWYRQAPGKERELVAAISIRGGRTNYTDSVKGRFTISRDNAKNTVYLQMNSLKPEDTAVYYCNARGARYYWYQLGHDYWGQGTQVTVSS”, the “polyreactivity (PSR sort gate)” value was “high polyreactivity”.

“QVQLVESGGGLVQAGGSLRLSCAASGRIFAKYAMGWYRQAPGKERELVAAISWGGGSTYYADSVKGRFTISRDNAKNTVYLQMNSLKPEDTAVYYCARRFKYGSTAWRFYYWGQGTQVTVSS”: the “polyreactivity (PSR sort gate)” value is “high polyreactivity”.

With “QVQLVESGGGLVQAGGSLRLSCAASGRIFALYAMGWYRQAPGKERELVAAITWRGGRTRYADSVKGRFTISRDNAKNTVYLQMNSLKPEDTAVYYCNKRLFASRYDYWGQGTQVTVSS”, the “polyreactivity (PSR sort gate)” value is “high polyreactivity”.

As for “QVQLVESGGGLVQAGGSLRLSCAASGRIFALYAMGWYRQAPGKERELVASITGGTSTNYADSVKGRFTISRDNAKNTVYLQMNSLKPEDTEVYYCAARGYTTGTRNRRYNYWGQGTQVTVSS”, the “polyreactivity (PSR sort gate)” value was “high polyreactivity”.

Consider “QVQLVESGGGLVQAGGSLRLSCAASGRIFANNAMGWYRQAPGKERELVAAISWRSGGTYYADSVKGRFTISRDNAKNTVYLQMNSLKPEDTAVYYCARRSPHHGRDYWGQGTQVTVSS”, for which the “polyreactivity (PSR sort gate)” value is “low polyreactivity”.

With “QVQLVESGGGLVQAGGSLRLSCAASGRIFAPYAMGWYRQAPGKERELVAAIRISGDSTYYADSVKGRFTISRDNAKNTVYLQMNSLKPEDTAVYYCAAEYYILHWFGYAGYPAYNYWGQGTQVTVSS”, the “polyreactivity (PSR sort gate)” value is listed as “high polyreactivity”.

Consider “QVQLVESGGGLVQAGGSLRLSCAASGRIFAPYAMGWYTQAPGKERELVAAISFSGGSTHYADSVKGRFTISRDNAKNTVYLQMNSLKPEDTAVYYCAAGWRSRLYRFGYWGQGTQVTVSS”, for which the “polyreactivity (PSR sort gate)” value is listed as “high polyreactivity”.

For “QVQLVESGGGLVQAGGSLRLSCAASGRIFAQYAMGWYRQAPGKERELVADISSGVRTNADSVKGRFTISRDNAKNSVYLQMNSLKPEDTAVSYCNAYYIIFTRNDYWGQGTQVTVSS”, the “polyreactivity (PSR sort gate)” value is listed as “low polyreactivity”.

Consider “QVQLVESGGGLVQAGGSLRLSCAASGRIFARKAMGRYRQAPGKEREWVATIRVGGGSTYYADSVKGRFTISRDNAKNTVYLQMNSLKPEDTAVYYFAVRQLYSYPGDRRGYDWGQGTQVTVSS”, for which the “polyreactivity (PSR sort gate)” value is “low polyreactivity”.

As to “QVQLVESGGGLVQAGGSLRLSCAASGRIFARNAMGWYRQAPGKERELVADITSTGSTNYADSVKGRFTISRDNAMNTVYLQMNSLKPEDTAVYYCAADYYTGYVWEDYYWGQGTQVTVSS”, the “polyreactivity (PSR sort gate)” value is recorded as “low polyreactivity”.

For the sequence “QVQLVESGGGLVQAGGSLRLSCAASGRIFARNAMGWYRQAPGKESELVAAITSSGSTYYADSVKGRFTISRDNAKNSVYLQMNSLKPEDTAVYYCAADGHAYRSNFWGQGTQVTVSS”, the “polyreactivity (PSR sort gate)” value is “low polyreactivity”.

As to “QVQLVESGGGLVQAGGSLRLSCAASGRIFARNTMGWYRQAPGKERELVAAISWGGGRTYYADSVKGRFTISRDNAKNTVYLQMNSLKPEDTAVYYCAAETLQIPRGEYWGQGTQVNVSS”, the “polyreactivity (PSR sort gate)” value is reported as “low polyreactivity”.

As for “QVQLVESGGGLVQAGGSLRLSCAASGRIFARNTMGWYRQAPGKERELVAAISWGGGRTYYADSVKGRFTISRDNAKNTVYLQMNSLKPEDTAVYYCAAETLQIPRGEYWGQGTQVTVSS”, the “polyreactivity (PSR sort gate)” value is recorded as “low polyreactivity”.

As for “QVQLVESGGGLVQAGGSLRLSCAASGRIFARYAMGWYRQAPGKERELVAAIRTSGGITYYADSVKWRFTISRDNAKNTVYLQMNSLKPEDTEVYYCAADFYSYSSVKYDYWGQGTQVTVSS”, the “polyreactivity (PSR sort gate)” value was “low polyreactivity”.

In the case of “QVQLVESGGGLVQAGGSLRLSCAASGRIFARYAMGWYRQAPGKERELVAAISRGGSTKYADSVKGRFTISRDNAKNTVYLQMNSLKPEDTAVYYCAGQLWGSPYGAYYAGDYWGQGTQVTVSS”, the “polyreactivity (PSR sort gate)” value is “low polyreactivity”.

As for “QVQLVESGGGLVQAGGSLRLSCAASGRIFARYAMGWYRQAPGKERELVAAITGGGRTNYADSVKGRFTISRDNAKNTVYLQMNSLKPEDTAVYYCAADTGYQNGKGLGYQNFGGYYWGQGTQVTVSS”, the “polyreactivity (PSR sort gate)” value is “high polyreactivity”.

With “QVQLVESGGGLVQAGGSLRLSCAASGRIFARYTMGWYRQAPGKEREFVAGIRSSGGRTYYADSVKGRFTISRDNAKNTVYLQMNSLKPEDTALYYCNAGGSWYFARYDYWGQGTQVTVSS”, the “polyreactivity (PSR sort gate)” value is listed as “low polyreactivity”.

As for “QVQLVESGGGLVQAGGSLRLSCAASGRIFATNAMGWYRQAPGKEMELVATITRSAGRTYYADSVKGRFTISRDNAKNTVYLQMNSLKPEDTAVYYCAASYWDTEPGYREYDYWGQGTQVTVSS”, the “polyreactivity (PSR sort gate)” value is reported as “low polyreactivity”.

In the case of “QVQLVESGGGLVQAGGSLRLSCAASGRIFATNAMGWYRQAPGKERELVAIITRSAGRTYYADSVKGRFTISRDKAKNTVYLQMNSLKPEDTAVYYCNTVPRPFDRYGYWGQGTQVTVSS”, the “polyreactivity (PSR sort gate)” value is “low polyreactivity”.

In the case of “QVQLVESGGGLVQAGGSLRLSCAASGRIFATYAMGWYRQAPGKERELVAAISDSGGRTYYADSVKGRFTISRDNAKNTVYLQMNSLKPADTALYYCAAKNGDRYARGYWGQATQVTVSS”, the “polyreactivity (PSR sort gate)” value is “high polyreactivity”.

“QVQLVESGGGLVQAGGSLRLSCAASGRIFAVNAMGWYRQAPGKERELVAAINGGGSTNYADSVKGRFTISRDNAKNTVYFQMNSLKPEDTAVYYCAADVGWRSQTRGYYWGQGTQVTVSS”: the “polyreactivity (PSR sort gate)” value is given as “high polyreactivity”.

Regarding “QVQLVESGGGLVQAGGSLRLSCAASGRIFAWYVMGWYRQAPRKEREFVAAIRWRSGSTHYADSVKGRFTISRDNAKNTVYLQMNSLKPEDTAVYYCAVDSRTYNGDYWGQGTQVTVSS”, the “polyreactivity (PSR sort gate)” value is on record as “high polyreactivity”.
